These results are taken from patent publication US20220041691A1, “METHODS FOR DIAGNOSING OR TREATING POST-TRAUMATIC STRESS DISORDER, AND COMPOSITIONS THEREFOR” (Centre for Addiction and Mental Health, priority 2018, published 2022).

B1: human FK506 Binding Protein 51 (FKBP51) (other)
chain: MTTDEGAKNNEESPTATVAEQGEDITSKKDRGVLKIVKRVGNGEETPMIGDKVYVHYKGKLSNGKKFDSSHDRNEPFVFSLGKGQVIKAWDIGVATMKKGEICHLLCKPEYAYGSAGSLPKIPSNATLFFEIELLDFKGEDLFEDGGIIRRTKRKGEGYSNPNEGATVEIHLEGRCGGRMFDCRDVAFTVGEGEDHDIPIGIDKALEKMQREEQCILYLGPRYGFGEAGKPKFGIEPNAELIYEVTLKSFEKAKESWEMDTKEKLEQAAIVKEKGTVYFKGGKYMQAVIQYGKIVSWLEMEYGLSEKESKASESFLLAAFLNLAMCYLKLREYTKAVECCDKALGLDSANEKGLYRRGEAQLLMNEFESAKGDFEKVLEVNPQNKAARLQISMCQKKAKEHNERDRRIYANMFKKFAEQDAKEEANKAMGKKTSEGVTNEKGTDSQAMEEEKPEGHV
notes: Endogenous protein in peripheral blood (lymphocyte) lysate of patients and controls
B2: human glucocorticoid receptor (GR) (receptor)
chain: MDSKESLTPGREENPSSVLAQERGDVMDFYKTLRGGATVKVSASSPSLAVASQSDSKQRRLLVDFPKGSVSNAQQPDLSKAVSLSMGLYMGETETKVMGNDLGFPQQGQISLSSGETDLKLLEESIANLNRSTSVPENPKSSASTAVSAAPTEKEFPKTHSDVSSEQQHLKGQTGTNGGNVKLYTTDQSTFDILQDLEFSSGSPGKETNESPWRSDLLIDENCLLSPLAGEDDSFLLEGNSNEDCKPLILPDTKPKIKDNGDLVLSSPSNVTLPQVKTEKEDFIELCTPGVIKQEKLGTVYCQASFPGANIIGNKMSAISVHGVSTSGGQMYHYDMNTASLSQQQDQKPIFNVIPPIPVGSENWNRCQGSGDDNLTSLGTLNFPGRTVFSNGYSSPSMRPDVSSPPSSSSTATTGPPPKLCLVCSDEASGCHYGVLTCGSCKVFFKRAVEGQHNYLCAGRNDCIIDKIRRKNCPACRYRKCLQAGMNLEARKTKKKIKGIQQATTGVSQETSENPGNKTIVPATLPQLTPTLVSLLEVIEPEVLYAGYDSSVPDSTWRIMTTLNMLGGRQVIAAVKWAKAIPGFRNLHLDDQMTLLQYSWMFLMAFALGWRSYRQSSANLLCFAPDLIINEQRMTLPCMYDQCKHMLYVSSELHRLQVSYEEYLCMKTLLLLSSVPKDGLKSQELFDEIRMTYIKELGKAIVKREGNSSQNWQRFYQLTKLLDSMHEVVENLLNYCFQTFLDKTMSIEFPEMLAEIITNQIPKYSNGNIKKLLFHQK
notes: as for B1

The target in test [1] is B2. The experiment in a line: co-immunoprecipitation with anti-FKBP51 antibody from human peripheral blood protein, Western blot for GR.
Test [2] deals with B1. Nature of the test: co-immunoprecipitation from human peripheral blood samples, densitometry, n=21.
In test [3] the target is B1. The experiment in a line: co-immunoprecipitation from human peripheral blood samples, densitometry, n=22.

With B1, the binding result in test [1] is recorded as “binds”.

Consider B2, for which the “GR-FKBP51 complex level, PTSD patients relative to trauma controls (Trauma = 1)” value in test [2] is 1.46 fold of control. Moreover, the “GR-FKBP51 complex level, PTSD patients relative to healthy controls (CTRL = 1)” value in test [3] was 1.41 fold of control.
